Patent publication US20210054076A1 (Chugai, published 2021)
Numbering of substitutions follows the chain as printed.

Columns and labels:
human CLDN3 = molecular target: T1, human CLDN3 (human, UniProt O15551 1-220); assay: FACS on Ba/F3 transfectant, antibody 20 micro g/ml, FITC anti-human IgG
T1 construct: whole, on cells; also called hCLDN3; BaF3_hCLDN3
T1 sequence (looked up): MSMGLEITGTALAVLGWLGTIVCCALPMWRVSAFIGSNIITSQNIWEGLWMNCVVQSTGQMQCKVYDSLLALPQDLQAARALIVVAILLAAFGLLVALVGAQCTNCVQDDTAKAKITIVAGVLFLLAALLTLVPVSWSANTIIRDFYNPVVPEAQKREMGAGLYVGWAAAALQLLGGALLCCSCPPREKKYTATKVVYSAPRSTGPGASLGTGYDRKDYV
Experimental: (§1) To evaluate the binding activity and specificity of the generated CLDN6-TRABs against CLDN6 and other Claudin family antigens, FACS analysis was conducted as follows. Ba/F3 transfectants stably express a kind of protein selected from human CLDN3 (hCLDN3), human CLDN4 (hCLDN4), human CLDN6 (hCLDN6), human CLDN9 (hCLDN9), mouse CLDN3 (mCLDN3), mouse CLDN4 (mCLDN4) and mouse CLDN6 (mCLDN6), were generated using similar method described in WO2008/087978, and named BaF3_hCLDN3, BaF3_hCLDN4, BaF3_hCLDN6, BaF3_hCLDN9, BaF3 mCLDN3, BaF3 mCLDN4, BaF3 mCLDN6, respectively. Each of the CLDN6-TRABs (CH01/CD3, CH02/CD3, CH03/CD3, CH04/CD3) was incubated with the Ba/F3 transfectants at an antibody concentration of 20 micro g/ml in FACS buffer (0.5% BSA containing autoMACS Rinsing Solution, Miltenyl Biotec). Binding activities of each CLDN6-TRAB to the Claudin family proteins (hCLDN3, hCLDN4, hCLDN6, hCLDN9, mCLDN3, mCLDN4, mCLDN6) were examined by incubation of FITC-conjugated goat anti human IgG (BeckmanCoulter), represented as Geo-mean value. Sample processing was conducted on FACSVerse (BD).
(§2) Claudin family proteins have two extracellular domains. The sequence of the first extracellular domain in human CLDN9 is almost the same compared with the first extracellular domain of human CLDN6. For the second extracellular domain of human CLDN9, there are only two amino acids different from the ones at their corresponding positions in human CLDN6 (FIG. 2). The glutamine at position 156 of human Claudin 6 (position 156 in the sequence shown in SEQ ID NO: 44 or 45) was substituted to leucine to make a human CLDN6 mutant comprising the same amino acid as human Claudin 9 at position 156. This human CLDN6 mutant was named as hCLDN6(Q156L) (SEQ ID NO: 53). Ba/F3 transfectant stably express hCLDN6(Q156L) was generated using similar method described in WO2008/087978. The established Ba/F3 transfectant was named BaF3_hCLDN6(Q156L). Binding activity of the generated CLDN6-TRABs against BaF3_hCLDN6(Q156L) was measured using the above mentioned FACS method and the results are shown in FIG. 1 and Table 3.

human CLDN6 [1] = molecular target: T2, human CLDN6 (human, UniProt P56747 1-220); assay: as above
T2 construct: 45 is entered here, 44 is equally possible; also called hCLDN6; human Claudin 6
T2 sequence: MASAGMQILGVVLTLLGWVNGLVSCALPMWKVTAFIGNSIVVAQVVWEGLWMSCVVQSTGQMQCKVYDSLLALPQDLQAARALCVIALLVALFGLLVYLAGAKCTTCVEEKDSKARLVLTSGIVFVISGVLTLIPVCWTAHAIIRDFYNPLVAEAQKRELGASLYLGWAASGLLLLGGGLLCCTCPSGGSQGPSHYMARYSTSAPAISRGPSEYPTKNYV
Experimental: as §1, §2

mouse CLDN3 = molecular target: T3, mouse CLDN3 (mouse, UniProt Q9Z0G9 1-219); assay: as above
T3 construct: whole, on cells; also called mCLDN3; BaF3_mCLDN3
T3 sequence (looked up): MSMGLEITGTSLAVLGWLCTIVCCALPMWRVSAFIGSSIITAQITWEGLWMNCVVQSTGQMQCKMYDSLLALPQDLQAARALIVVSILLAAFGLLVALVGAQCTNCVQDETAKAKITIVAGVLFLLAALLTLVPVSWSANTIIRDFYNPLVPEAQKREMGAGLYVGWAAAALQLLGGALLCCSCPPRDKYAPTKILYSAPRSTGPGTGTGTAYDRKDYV
Experimental: as §1, §2

human CLDN4 = molecular target: T4, human CLDN4 (human, UniProt O14493 1-209); assay: as above
T4 construct: whole, on cells; also called hCLDN4; BaF3_hCLDN4
T4 sequence (looked up): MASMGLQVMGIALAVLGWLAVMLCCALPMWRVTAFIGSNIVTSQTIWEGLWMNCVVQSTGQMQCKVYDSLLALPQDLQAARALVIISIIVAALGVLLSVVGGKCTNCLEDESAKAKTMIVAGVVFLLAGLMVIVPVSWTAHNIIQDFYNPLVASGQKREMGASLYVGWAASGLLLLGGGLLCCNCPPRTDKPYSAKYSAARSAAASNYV
Experimental: as §1, §2

hCLDN6(Q156L) = molecular target: T5, hCLDN6(Q156L) (human, UniProt P56747 1-220); assay: as above
T5 construct: Stably expressed on Ba/F3 cells; also called human CLDN6 mutant; BaF3_hCLDN6(Q156L)
T5 chain: T2 sequence with Q156L
Experimental: as §1, §2

mouse CLDN4 = molecular target: T6, mouse CLDN4 (mouse, UniProt O35054 1-210); assay: as above
T6 construct: whole, on cells; also called mCLDN4; BaF3_mCLDN4
T6 sequence (looked up): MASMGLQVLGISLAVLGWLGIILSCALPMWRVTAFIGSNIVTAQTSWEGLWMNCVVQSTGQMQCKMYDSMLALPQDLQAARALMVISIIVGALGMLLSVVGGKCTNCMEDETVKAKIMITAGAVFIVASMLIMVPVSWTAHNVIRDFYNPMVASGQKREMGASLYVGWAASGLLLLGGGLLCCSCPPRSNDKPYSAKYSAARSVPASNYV
Experimental: as §1, §2

human CLDN6 [2] = molecular target: T2, human CLDN6; assay: cell-based or functional assay

B1: CH01/CD3 (bispecific antibody, human IgG1, kappa, N297A)
heavy 1: EVKLVESGGGLVKPGGSLKLSCAASGFTFNSYTMSWVRQTPAKRLEWVVTISSGGGRTYYPDSVKGRFTISRDNARNTLYLQMSSLRSEDTAMYYCIRGDYRYDGFAYWGQGTLVTVSTASTKGPSVFPLAPSSKSTSGGTAALGCLVKDYFPEPVTVSWNSGALTSGVHTFPAVLQSSGLYSLSSVVTVPSSSLGTQTYICNVNHKPSNTKVDKKVEPKSCDKTHTCPPCPAPELRGGPKVFLFPPKPKDTLMISRTPEVTCVVVDVSHEDPEVKFNWYVDGVEVHNAKTKPREEQYASTYRVVSVLTVLHQDWLNGKEYKCKVSNKALPAPIEKTISKAKGQPREPQVYTLPPSREEMTKNQVSLTCLVKGFYPSDIAVEWESNGQPENNYKTTPPYLDSDGSFFLYSKLTVDKSRWQQGNVFSCSVMHEALHNHYTQESLSLSP
light 1: DIQMTQSPASLSASVGETVTITCRASENIDSYLAWYQQKQGKSPQLLVYASTLLVDGVPSRFSGSRSGTQFSLKINSLQSEDVARYYCQHYYSIPYTFGSGTKLEIKRTVAAPSVFIFPPSDEQLKSGTASVVCLLNNFYPREAKVQWKVDNALQSGNSQESVTEQDSKDSTYSLSSTLTLSKADYEKHKVYACEVTHQGLSSPVTKSFNRGEC
heavy 2: QVQLVESGGGVVQPGGSLRLSCAASGFTFSNAWMHWVRQAPGKGLEWVAQIKDKSQNYATYVAESVKGRFTISRADSKNSIYLQMNSLKTEDTAVYYCRYVHYAAGYGVDIWGQGTTVTVSSASTKGPSVFPLAPSSKSTSGGTAALGCLVKDYFPEPVTVSWNSGALTSGVHTFPAVLQSSGLYSLSSVVTVPSSSLGTQTYICNVNHKPSNTKVDKKVEPKSCDKTHTCPPCPAPELRGGPKVFLFPPKPKDTLMISRTPEVTCVVVDVSHEDPEVKFNWYVDGVEVHNAKTKPREEQYASTYRVVSVLTVLHQDWLNGKEYKCKVSNKALPAPIEKTISKAKGQPREPQVYTLPPSRKEMTKNQVSLTCLVKGFYPSDIAVEWESNGQPENNYKTTPPYLDSDGSFFLYSKLTVDKSRWQQGNVFSCSVMHEALHNHYTQKSLSLSP
light 2: DIVMTQSPLSLPVTPGEPASISCRSSQPLVHSNRNTYLHWYQQKPGQAPRLLIYKVSNRFSGVPDRFSGSGSGTDFTLKISRVEAEDVGVYYCGQGTQVPYTFGQGTKLEIKRTVAAPSVFIFPPSDEQLKSGTASVVCLLNNFYPREAKVQWKVDNALQSGNSQESVTEQDSKDSTYSLSSTLTLSKADYEKHKVYACEVTHQGLSSPVTKSFNRGEC
notes: Made by Fab arm exchange of the bivalent anti-CLDN6 antibody CH01 with the bivalent anti-CD3 antibody CD3-1; human IgG1 constant region; One anti-CLDN6 arm and one anti-CD3 arm; also called CLDN6-TRAB; CLDN6-targeted T-cell redirecting bispecific antibody
- Geo-mean value of FACS (human CLDN3): 37
- Geo-mean value of FACS (human CLDN6 [1]): 4480
- Geo-mean value of FACS (mouse CLDN3): 26
- Geo-mean value of FACS (human CLDN4): 51
- Geo-mean value of FACS (hCLDN6(Q156L)): 114
- Geo-mean value of FACS (mouse CLDN4): 31
- EC50 (read off the curve), Jurkat/NFAT-RE luciferase reporter, target cells HuH-7 (human CLDN6 [2]): ~90 pM
